# Reference: the supplement of paper PMC9112550, “Optimization of the antimicrobial peptide Bac7 by deep mutational scanning” (BMC Biology, 2022)
# System: Escherichia coli TOP10
# Assay: shrunken log2 fold change of peptide-encoding DNA abundance (4.5 h post-induction vs induction); higher = less antimicrobial activity (less host growth inhibition)
# Details: time post-induction: 4.5 h; library: site-saturation at positions 5, 18, 19, 20
# 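Further: peptides expressed intracellularly from a pBAD plasmid library in pooled LB shake-flask culture, induced with 0.3% L-arabinose, DNA abundance read by NGS, three biological replicates, DESeq2 with apeglm shrinkage.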
row,Sequence,shrunken log2 fold change
1,RRIRIRPPRLPRPRPRPPAAPRP,0.458
2,RRIRQRPPRLPRPRPRPSLWPRP,0.337
3,RRIRIRPPRLPRPRPRPGAMPRP,0.046
4,RRIRVRPPRLPRPRPRPSWTPRP,-0.0613
5,RRIRVRPPRLPRPRPRPNMWPRP,-0.327
6,RRIRYRPPRLPRPRPRPCMCPRP,-0.516
7,RRIRGRPPRLPRPRPRPSPRPRP,0.927
8,RRIRWRPPRLPRPRPRPPVGPRP,0.167
9,RRIRRRPPRLPRPRPRPANKPRP,0.0263
10,RRIRIRPPRLPRPRPRPIQQPRP,-0.0134
11,RRIRQRPPRLPRPRPRPDHHPRP,-0.308
12,RRIRYRPPRLPRPRPRPCWGPRP,-0.204
13,RRIRKRPPRLPRPRPRPSMGPRP,-0.267
14,RRIRTRPPRLPRPRPRPGDQPRP,-0.0663
15,RRIRSRPPRLPRPRPRPLQDPRP,-0.129
16,RRIRCRPPRLPRPRPRPMTTPRP,0.151
17,RRIRARPPRLPRPRPRPGLPPRP,0.709
18,RRIRMRPPRLPRPRPRPHQDPRP,-0.117
19,RRIRKRPPRLPRPRPRPGFHPRP,0.206
20,RRIRARPPRLPRPRPRPNGYPRP,0.122
21,RRIRQRPPRLPRPRPRPDLTPRP,0.00424
22,RRIRPRPPRLPRPRPRPIYDPRP,-0.251
23,RRIRPRPPRLPRPRPRPDCFPRP,0.112
24,RRIRCRPPRLPRPRPRPFKDPRP,-0.54
25,RRIRGRPPRLPRPRPRPCTMPRP,-0.063

row,Sequence,shrunken log2 fold change
1,RRIRRRPPRLPRPRPRPAECPRP,-0.00699
2,RRIRRRPPRLPRPRPRPHRMPRP,-0.203
3,RRIRGRPPRLPRPRPRPWAQPRP,-0.035
4,RRIRRRPPRLPRPRPRPVDAPRP,0.804
5,RRIRRRPPRLPRPRPRPWDEPRP,0.0108
6,RRIRVRPPRLPRPRPRPMWEPRP,0.0553
7,RRIRCRPPRLPRPRPRPCNNPRP,-0.31
8,RRIRNRPPRLPRPRPRPYIAPRP,-0.172
9,RRIRSRPPRLPRPRPRPFWVPRP,0.106
10,RRIRHRPPRLPRPRPRPLDMPRP,-0.0339
11,RRIRMRPPRLPRPRPRPCTTPRP,0.104
12,RRIRRRPPRLPRPRPRPNLWPRP,0.552
13,RRIRSRPPRLPRPRPRPVLTPRP,-0.0627
14,RRIRCRPPRLPRPRPRPWESPRP,0.0539
15,RRIRKRPPRLPRPRPRPQFTPRP,-0.0285
16,RRIRNRPPRLPRPRPRPVWPPRP,0.199
17,RRIRRRPPRLPRPRPRPIDQPRP,0.696
18,RRIRTRPPRLPRPRPRPYSMPRP,-2.42
19,RRIRCRPPRLPRPRPRPLMYPRP,-0.606
20,RRIRGRPPRLPRPRPRPEVIPRP,0.073
21,RRIRTRPPRLPRPRPRPKDSPRP,0.0052
22,RRIRCRPPRLPRPRPRPVYQPRP,-0.783
23,RRIRVRPPRLPRPRPRPKYNPRP,-0.658
24,RRIRSRPPRLPRPRPRPISIPRP,0.0336
25,RRIRKRPPRLPRPRPRPHQMPRP,0.0681

row,Sequence,shrunken log2 fold change
1,RRIRNRPPRLPRPRPRPMWCPRP,-0.0647
2,RRIRTRPPRLPRPRPRPDSVPRP,-0.0144
3,RRIRSRPPRLPRPRPRPSMPPRP,-0.706
4,RRIRFRPPRLPRPRPRPCDNPRP,-0.0843
5,RRIRYRPPRLPRPRPRPVSVPRP,-0.0879
6,RRIRVRPPRLPRPRPRPHWGPRP,-0.0382
7,RRIRQRPPRLPRPRPRPPHKPRP,1.25
8,RRIRCRPPRLPRPRPRPRCVPRP,-0.0609
9,RRIRWRPPRLPRPRPRPNDDPRP,0.0584
10,RRIRARPPRLPRPRPRPIVTPRP,0.155
11,RRIRARPPRLPRPRPRPFYCPRP,-0.402
12,RRIRLRPPRLPRPRPRPNNNPRP,-0.673
13,RRIRWRPPRLPRPRPRPDDWPRP,0.288
14,RRIRWRPPRLPRPRPRPAPRPRP,1.12
15,RRIRVRPPRLPRPRPRPPTMPRP,0.0704
16,RRIRDRPPRLPRPRPRPDRSPRP,0.0975
17,RRIRVRPPRLPRPRPRPLPCPRP,-0.12
18,RRIRARPPRLPRPRPRPNNEPRP,-0.14
19,RRIRSRPPRLPRPRPRPDPFPRP,-0.214
20,RRIRRRPPRLPRPRPRPSNVPRP,0.27
21,RRIRYRPPRLPRPRPRPLYGPRP,-0.82
22,RRIRVRPPRLPRPRPRPWQFPRP,-0.0175
23,RRIRLRPPRLPRPRPRPIHPPRP,-0.168
24,RRIRERPPRLPRPRPRPYRCPRP,-0.0874
25,RRIRLRPPRLPRPRPRPKYYPRP,-1.1

row,Sequence,shrunken log2 fold change
1,RRIRRRPPRLPRPRPRPEWHPRP,-0.107
2,RRIRSRPPRLPRPRPRPALEPRP,0.407
3,RRIRKRPPRLPRPRPRPGYMPRP,-0.144
4,RRIRDRPPRLPRPRPRPLGDPRP,0.0385
5,RRIRLRPPRLPRPRPRPWIHPRP,-0.487
6,RRIRVRPPRLPRPRPRPKYTPRP,-0.421
7,RRIRWRPPRLPRPRPRPSARPRP,0.54
8,RRIRWRPPRLPRPRPRPQTHPRP,1
9,RRIRYRPPRLPRPRPRPINFPRP,-0.299
10,RRIRYRPPRLPRPRPRPASMPRP,0.0167
11,RRIRYRPPRLPRPRPRPICQPRP,-0.087
12,RRIRCRPPRLPRPRPRPEAPPRP,0.755
13,RRIRLRPPRLPRPRPRPIAHPRP,-0.058
14,RRIRKRPPRLPRPRPRPMKTPRP,0.0431
15,RRIRGRPPRLPRPRPRPRRGPRP,0.813
16,RRIRFRPPRLPRPRPRPHYHPRP,-0.834
17,RRIRHRPPRLPRPRPRPVNFPRP,-0.636
18,RRIRSRPPRLPRPRPRPRAGPRP,1.46
19,RRIRDRPPRLPRPRPRPWGAPRP,0.305
20,RRIRWRPPRLPRPRPRPKWCPRP,-0.0668
21,RRIRSRPPRLPRPRPRPNKIPRP,-0.294
22,RRIRVRPPRLPRPRPRPVHFPRP,0.13
23,RRIRLRPPRLPRPRPRPVPKPRP,0.282
24,RRIRARPPRLPRPRPRPICRPRP,0.349
25,RRIRHRPPRLPRPRPRPENMPRP,-0.042

row,Sequence,shrunken log2 fold change
1,RRIRPRPPRLPRPRPRPMQVPRP,-0.012
2,RRIRSRPPRLPRPRPRPCEYPRP,0.0232
3,RRIRARPPRLPRPRPRPRPKPRP,0.916
4,RRIRCRPPRLPRPRPRPANEPRP,0.0681
5,RRIRERPPRLPRPRPRPGWQPRP,0.0683
6,RRIRKRPPRLPRPRPRPVGRPRP,0.21
7,RRIRQRPPRLPRPRPRPEEYPRP,0.0748
8,RRIRGRPPRLPRPRPRPRDGPRP,1.27
9,RRIRQRPPRLPRPRPRPMYLPRP,-0.415
10,RRIRKRPPRLPRPRPRPHEYPRP,-0.091
11,RRIRERPPRLPRPRPRPIPGPRP,-0.124
12,RRIRARPPRLPRPRPRPFFCPRP,0.2
13,RRIRSRPPRLPRPRPRPHQLPRP,-0.201
14,RRIRHRPPRLPRPRPRPQRLPRP,0.00653
15,RRIRHRPPRLPRPRPRPEWGPRP,0.209
16,RRIRHRPPRLPRPRPRPECTPRP,0.154
17,RRIRWRPPRLPRPRPRPNVDPRP,-0.0535
18,RRIRVRPPRLPRPRPRPDAMPRP,0.0806
19,RRIRNRPPRLPRPRPRPLVVPRP,-0.117
20,RRIRFRPPRLPRPRPRPMPCPRP,-0.557
21,RRIRNRPPRLPRPRPRPKEAPRP,-0.00208
22,RRIRIRPPRLPRPRPRPRMVPRP,0.0922
23,RRIRFRPPRLPRPRPRPENPPRP,-0.0301
24,RRIRFRPPRLPRPRPRPMMFPRP,0.126
25,RRIRNRPPRLPRPRPRPQFKPRP,-0.3

row,Sequence,shrunken log2 fold change
1,RRIRPRPPRLPRPRPRPQRCPRP,-0.0388
2,RRIRIRPPRLPRPRPRPGYVPRP,-0.181
3,RRIRWRPPRLPRPRPRPVKYPRP,-0.632
4,RRIRIRPPRLPRPRPRPMQHPRP,-0.289
5,RRIRRRPPRLPRPRPRPYIKPRP,-0.509
6,RRIRSRPPRLPRPRPRPNCWPRP,0.292
7,RRIRWRPPRLPRPRPRPQGIPRP,0.102
8,RRIRNRPPRLPRPRPRPYCYPRP,-1.44
9,RRIRIRPPRLPRPRPRPQYFPRP,-0.128
10,RRIRMRPPRLPRPRPRPWRKPRP,0.506
11,RRIRERPPRLPRPRPRPIGYPRP,-0.00962
12,RRIRFRPPRLPRPRPRPHWQPRP,-0.119
13,RRIRNRPPRLPRPRPRPIIKPRP,-0.463
14,RRIRCRPPRLPRPRPRPPYSPRP,-0.798
15,RRIRVRPPRLPRPRPRPVAGPRP,0.0748
16,RRIRQRPPRLPRPRPRPFCTPRP,-0.246
17,RRIRARPPRLPRPRPRPCNNPRP,-0.352
18,RRIRYRPPRLPRPRPRPYADPRP,-0.136
19,RRIRHRPPRLPRPRPRPYFTPRP,-0.679
20,RRIRQRPPRLPRPRPRPYNFPRP,-0.0266
21,RRIRDRPPRLPRPRPRPKAEPRP,-0.0211
22,RRIRDRPPRLPRPRPRPQLRPRP,-0.0942
23,RRIRERPPRLPRPRPRPGQEPRP,0.0214
24,RRIRPRPPRLPRPRPRPYDGPRP,-0.7
25,RRIRQRPPRLPRPRPRPTRLPRP,0.723
